In paper PMC12931925:

Molecular target: KRAS^G12D (UniProt P01116)

RBDCRD-NarX fusions (RAS-binding components of the RAS sensor, RBDCRD wild-type), sequence (P0AFA2 whole entry, looked up, the tested form may be a part): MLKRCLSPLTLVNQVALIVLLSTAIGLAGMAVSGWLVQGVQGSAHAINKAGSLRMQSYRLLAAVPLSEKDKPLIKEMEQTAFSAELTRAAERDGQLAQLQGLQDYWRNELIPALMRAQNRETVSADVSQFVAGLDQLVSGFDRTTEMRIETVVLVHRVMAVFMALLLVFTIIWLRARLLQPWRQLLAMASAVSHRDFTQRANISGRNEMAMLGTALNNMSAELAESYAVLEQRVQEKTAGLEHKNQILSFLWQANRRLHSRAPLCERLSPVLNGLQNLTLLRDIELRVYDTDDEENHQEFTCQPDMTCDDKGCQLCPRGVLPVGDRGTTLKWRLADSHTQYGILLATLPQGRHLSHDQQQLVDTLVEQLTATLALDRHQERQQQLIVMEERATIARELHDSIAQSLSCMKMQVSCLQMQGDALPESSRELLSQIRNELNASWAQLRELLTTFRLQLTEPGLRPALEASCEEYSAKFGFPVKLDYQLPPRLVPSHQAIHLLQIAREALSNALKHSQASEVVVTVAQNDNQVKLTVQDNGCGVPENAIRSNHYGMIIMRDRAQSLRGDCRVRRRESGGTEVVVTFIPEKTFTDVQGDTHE

increase in relative mCerulean output of the functional RAS sensor compared to 0 ng/well of KRAS^G12D plasmid (HEK293, Figure 2—figure supplement 2b): 14 fold
Substance: RBDCRD-NarX fusions (RAS-binding components of the RAS sensor, RBDCRD wild-type) (from UniProt P0AFA2 379-598; P0AFA2 379-598)
